This is an account of results in paper PMC6171530 (Nature chemical biology, 2018).

B1: His6-RNR-α (enzyme, human, UniProt P23921 1-792, looked up)
chain: MHVIKRDGRQERVMFDKITSRIQKLCYGLNMDFVDPAQITMKVIQGLYSGVTTVELDTLAAETAATLTTKHPDYAILAARIAVSNLHKETKKVFSDVMEDLYNYINPHNGKHSPMVAKSTLDIVLANKDRLNSAIIYDRDFSYNYFGFKTLERSYLLKINGKVAERPQHMLMRVSVGIHKEDIDAAIETYNLLSERWFTHASPTLFNAGTNRPQLSSCFLLSMKDDSIEGIYDTLKQCALISKSAGGIGVAVSCIRATGSYIAGTNGNSNGLVPMLRVYNNTARYVDQGGNKRPGAFAIYLEPWHLDIFEFLDLKKNTGKEEQRARDLFFALWIPDLFMKRVETNQDWSLMCPNECPGLDEVWGEEFEKLYASYEKQGRVRKVVKAQQLWYAIIESQTETGTPYMLYKDSCNRKSNQQNLGTIKCSNLCTEIVEYTSKDEVAVCNLASLALNMYVTSEHTYDFKKLAEVTKVVVRNLNKIIDINYYPVPEACLSNKRHRPIGIGVQGLADAFILMRYPFESAEAQLLNKQIFETIYYGALEASCDLAKEQGPYETYEGSPVSKGILQYDMWNVTPTDLWDWKVLKEKIAKYGIRNSLLIAPMPTASTAQILGNNESIEPYTSNIYTRRVLSGEFQIVNPHLLKDLTERGLWHEEMKNQIIACNGSIQSIPEIPDDLKQLYKTVWEISQKTVLKMAAERGAFIDQSQSLNIHIAEPNYGKLTSMHFYGWKQGLKTGMYYLRTRPAANPIQFTLNKEKLKDKEKVSKEEEEKERNTAAMVCSLENRDECLMCGS

Series [1] deals with the molecule itself. Briefly: negative-stain electron microscopy.
The series “His6-RNR-α” addresses B1. Briefly: pull-down.

By stoichiometry N is commonly meant the number of molecules, sites or subunits per partner or assembly. In the case of B1, in series [1], the “stoichiometry N” value came to 6.

B2: His6-HA-HNH&APIM (domain or fragment, UniProt Q5FWF4 929-1079, looked up)
chain: NSWDSRFCSLKCQEEFWIRSNNSYLRAKVFETEHGVCQLCNVNAQELFLRLRDAPKSQRKNLLYATWTSKLPLEQLNEMIRNPGEGHFWQVDHIKPVYGGGGQCSLDNLQTLCTVCHKERTARQAKERSQVRRQSLASKHGSDITRFLVKK
Regarding B2, the binding result with His6-RNR-α is listed as “binds”.
